Paper PMC4256047, “Structural and Functional Profiling of Environmental Ligands for Estrogen Receptors” (Environmental Health Perspectives, 2014)
Where no end group is shown, it is not given here. fluorescein = fluorescein label on the N-terminus of the peptide

Key:
Details in all cases: both partners purified
[1] = molecular target: T1, human wt-ERα LBD (estrogen receptor alpha ligand-binding domain, amino acids 302-552) (human, UniProt P03372 302-552); assay: fluorescence polarisation; fluorescence anisotropy; 4 nM fluorescein-SRC-1 NR2 peptide, LBD diluted 2-fold from 10 uM (ERα) or 20 uM (ERβ); in the absence of ligand (apo-receptor); 20 mM Tris pH 8.0, 150 mM NaCl, 5 mM DTT, 10% glycerol
T1 sequence (looked up): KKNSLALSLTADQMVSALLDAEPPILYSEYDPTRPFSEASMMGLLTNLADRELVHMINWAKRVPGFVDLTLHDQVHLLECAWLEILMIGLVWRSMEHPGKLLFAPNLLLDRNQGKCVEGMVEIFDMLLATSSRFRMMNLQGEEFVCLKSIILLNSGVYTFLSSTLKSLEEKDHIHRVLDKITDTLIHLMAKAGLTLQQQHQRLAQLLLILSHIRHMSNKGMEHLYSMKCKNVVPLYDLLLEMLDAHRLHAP

[2] = molecular target: T2, human wt-ERβ LBD (estrogen receptor beta ligand-binding domain, amino acids 261-502) (human, UniProt Q92731 261-502); assay: as above
T2 construct: Cloned into pET-32a; N-terminal thioredoxine-hexahistidine tag removed with TEV protease; not shown: thioredoxin, N-terminal, cleaved; His6, N-terminal, cleaved
T2 sequence (Q92731 261-502): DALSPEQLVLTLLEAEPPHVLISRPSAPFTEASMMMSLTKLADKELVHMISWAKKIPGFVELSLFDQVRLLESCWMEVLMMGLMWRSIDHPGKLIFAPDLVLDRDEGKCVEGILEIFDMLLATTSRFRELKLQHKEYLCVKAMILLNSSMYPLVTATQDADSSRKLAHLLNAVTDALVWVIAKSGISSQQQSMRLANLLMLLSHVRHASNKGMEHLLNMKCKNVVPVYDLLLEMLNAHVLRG

[3] = molecular target: T1, human wt-ERα LBD (estrogen receptor …); assay: fluorescence polarisation; fluorescence anisotropy; 4 nM fluorescein-SRC-1 NR2 peptide, LBD diluted 2-fold from 10 uM (ERα) or 20 uM (ERβ); with BPC at 20 uM (ERα) or 40 uM (ERβ); 20 mM Tris pH 8.0, 150 mM NaCl, 5 mM DTT, 10% glycerol
[4] = molecular target: T2, human wt-ERβ LBD (estrogen receptor …); assay: as above
[5] = molecular target: T2, human wt-ERβ LBD (estrogen receptor …); assay: fluorescence polarisation; fluorescence anisotropy; 4 nM fluorescein-SRC-1 NR2 peptide, LBD diluted 2-fold from 10 uM (ERα) or 20 uM (ERβ); with BP-2 at 20 uM (ERα) or 40 uM (ERβ); 20 mM Tris pH 8.0, 150 mM NaCl, 5 mM DTT, 10% glycerol
[6] = molecular target: T1, human wt-ERα LBD (estrogen receptor …); assay: fluorescence polarisation; fluorescence anisotropy; 4 nM fluorescein-SRC-1 NR2 peptide, LBD diluted 2-fold from 10 uM (ERα) or 20 uM (ERβ); with E2 at 20 uM (ERα) or 40 uM (ERβ); 20 mM Tris pH 8.0, 150 mM NaCl, 5 mM DTT, 10% glycerol
[7] = molecular target: T2, human wt-ERβ LBD (estrogen receptor …); assay: as above
[8] = molecular target: T2, human wt-ERβ LBD (estrogen receptor …); assay: fluorescence polarisation; fluorescence anisotropy; 4 nM fluorescein-SRC-1 NR2 peptide, LBD diluted 2-fold from 10 uM (ERα) or 20 uM (ERβ); with HPTE at 20 uM (ERα) or 40 uM (ERβ); 20 mM Tris pH 8.0, 150 mM NaCl, 5 mM DTT, 10% glycerol

B1: fluorescein-RHKILHRLLQEGS peptide corresponding to the NR box 2-binding motif of SRC-1 (peptide)
peptide: fluorescein-RHKILHRLLQEGS
notes: also called SRC-1 NR2 peptide; fluorescein-labeled SRC-1 NR2 peptide; source: bought: EZbiolab
Kd [1]: 6.28 µM
Kd [2]: 4.54 µM
Kd [3]: 9.07 µM
Kd [4]: 6.32 µM
Kd [5]: 990 nM
Kd [6]: 110 nM
Kd [7]: 680 nM
Kd [8]: 10.9 µM
